Molecular target: the molecule itself
Test: crystal structure; MicroED (electron diffraction, continuous rotation) of nano-crystals grown in Na+ buffers with MPD, protein in DM detergent; 11 crystals merged; 2.5 Å; space group I4; tetramer on the four-fold axis

B1: NaK–∆19 (NaK ion channel from Bacillus cereus with the first 19 residues truncated) (domain or fragment)
chain: KDKEFQVLFVLTILTLISGTIFYSTVEGLRPIDALYFSVVTLTTVGDGNFSPQTDFGKIFTILYIFIGIGLVFGFIHKLAVNVQLPSILSNRKKE
notes: NaK channel, Bacillus cereus, wild type with the first 19 residues truncated (about 10-kDa monomer); also called molA; molB
- stoichiometry N: 4
